Data reported in patent US20160251436A1 (PD 1 ACQUISITION GROUP, published 2016).

Key:
PD-1-HIS = biological target: T1, PD-1-HIS (human, UniProt Q15116); assay: ELISA, supernatant of transfected HEK293 cells on PD-1-HIS(tag), OD 450 nm, average of two experiments
T1 construct: soluble extracellular domain; May be the same protein as m2; also called PD-1-HIS(tag); PD-1-His Tag (Sino Biological #10377-H08H-50)

[1] = biological target: T2, human Programmed Death-1 (PD-1) expressed on the cell surface (human, UniProt Q15116 25-288); assay: cell binding, HEK293 cells expressing human PD-1, fluorescent anti-mouse secondary
T2 construct: whole, on cells; also called CD279; Human PD-1 Expressed on HEK293 Surface
T2 sequence (Q15116 25-288): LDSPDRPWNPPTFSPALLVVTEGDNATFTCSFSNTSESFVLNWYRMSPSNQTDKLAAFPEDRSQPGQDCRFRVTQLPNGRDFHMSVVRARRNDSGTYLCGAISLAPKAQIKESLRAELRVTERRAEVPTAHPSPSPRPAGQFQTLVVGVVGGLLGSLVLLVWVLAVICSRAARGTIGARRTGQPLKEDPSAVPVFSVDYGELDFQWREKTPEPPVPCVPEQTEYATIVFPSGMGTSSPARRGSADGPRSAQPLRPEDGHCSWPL
Description: Recombinant antibodies from cultured supernatants were also used in cell-based binding studies. HEK293 cells were transfected (Qiagen, SuperFect) with expression plasmids encoding the Ig heavy and light chains of anti-PD-1 antibodies. After 3-5 days, recombinant antibodies in the supernatants of transfected cells were harvested. Stable HEK293 cells expressing human PD-1 or primary cells were used for the cell-based binding confirmation studies. Antibodies from cultured supernatants were assessed for binding to cell surface PD-1 using fluorescently labeled anti-mouse IgG (polyclonal) antibody (Jackson Immunoresearch).
In both studies, commercially available mouse anti-PD-1 antibody and isotype control mouse IgG1 […] were used as controls. […] Strong binding is denoted as “+++”, medium binding is denoted as “++”, and weak binding is denoted as “+”.

T1 sequence (Q15116 25-167 limits assumed): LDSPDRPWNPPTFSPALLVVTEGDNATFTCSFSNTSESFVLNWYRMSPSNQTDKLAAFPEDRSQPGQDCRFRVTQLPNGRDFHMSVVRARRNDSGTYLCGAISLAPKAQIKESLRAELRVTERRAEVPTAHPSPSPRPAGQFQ

Binder | binding result (PD-1-HIS) | binding result [1]
100388_H4VH1_100389_H4VK4 (antibody, V domains shown, Mouse variable regions; cloned into pFUSE-CHIg-mG1 (murine IgG1 Fc), expressed in HEK293) VH: EVQLQESGPGLVAPSQSLSITCTVSGFSLTNYGVDWVRQSPGKGLEWLGVIWGVGSTNYNSALKSRLSISKDNSKSQVFLKMNSLQTDDTAMYYCASDGFVYWGQGTLVTVSS VL: DIVLTQDELSNPVTSGESVSISCRSSKSLLYKDGKTYLNWFLQRPGQSPQVLIYFMSTRASGVSDRFSGSGSGTDFTLEISRVKAEDVGVYYCQQLVDFPFTFGSGTKLELK | binds | 
100413_H1VH3_100414_H1VK6 (antibody, V domains shown, Mouse variable regions; cloned into pFUSE-CHIg-mG1 (murine IgG1 Fc), expressed in HEK293) VH: EVQLQESGPSLVQPSQSLSITCTVSGFSLTNYGVHWVRQSPGKGLEWLGVIWRGGNTDYNAAFMSRLSITKDNSKSQVFFKFHSLQTDDTAIYYCAASMIGGYWGQGTTLTVSS VL: DIVLTQSPLSLPVSLGDQASISCRSSQSIVHSDGNTYLEWYLQKPGQSPKLLIYKVSNRFSGVPDRFSGSGSGTDFTLKISRVEAEDLGIYYCFQGSHVPLTFGAGTKLELK | binds | 
100394_F1VH8_100395_F1VK4 (antibody, V domains shown, Mouse variable regions; cloned into pFUSE-CHIg-mG1 (murine IgG1 Fc), expressed in HEK293) VH: EVQLQESGPELVKPGASVKIPCKASGYTFTDYNMDWVKQSHGKSLEWIGDIDPNNGGTIYNQNFKGKATLTVDKSSSTAYMELRSLTSEDTAVYYCARWRSSMDYWGQGTSVTVSS VL: DIVLTQSPSSLSASLGDRVTISCSASQGISNYLNWYQQKPDGTVKLLIYYTSSLHSGVPSRFSGSGSGTDYSLTISNLEPEDIATYYCQQYSKLPWTFGGGTKLEIK | binds | 
100392_C5VH6_100393_C5VK7 (antibody, V domains shown, Mouse variable regions; cloned into pFUSE-CHIg-mG1 (murine IgG1 Fc), expressed in HEK293; also called 392C5A) VH: EVQLQESGPELVKPGASVKIPCKASGYTFTDYNMDWVKQSHGKSLEWIGDIDPNSGGSIYNQKFKGKATLTVDKSSRTVYMELRSLTSEDTAVYYCARWRSSMDYWGQGTSVTVSS VL: DIVMTQSPSSLSASLGDRVTISCSASQGISHYLNWYQQKPDGTVKLLIYYTSSLHSGVPSRFSGSGSGTDYSLTIRNLEPEDIATYYCQQYSELPWTFGGGTKLEIK | binds | binds
100388_C1VH2_100389_C1VK1 (antibody, V domains shown, Mouse variable regions; cloned into pFUSE-CHIg-mG1 (murine IgG1 Fc), expressed in HEK293; also called 388C12A) VH: EVQLQESGPELVKPGASVKIPCKASGYTFTDYNMDWVKQSHGKSLEWIGDIDPNNGGIIYNQKFKGKAALTVDKSSSTAYMELRSLTSEDTAVYYCARWRSSMDYWGQGTSVTVSS VL: DIVMTQSPSSLSASLGDRVTISCSASQDISSYLNWYQQKPDGTVKLLIYYTSSLHSGVPSRFSGSGSGTDYSLTISNLEPEDIATYYCQQYSELPWTFGGGTKLEIK | binds | binds
100388_C1VH6_100389_C1VK2 (antibody, V domains shown, Mouse variable regions; cloned into pFUSE-CHIg-mG1 (murine IgG1 Fc), expressed in HEK293; also called 388C16B) VH: EVQLQESGPELVKPGASVKIPCKASGYTFTDYNMDWVKQSHGKSLEWIGDIDPNNGGIIYNQKFKGKAALTVDKSSSTAYMELRSLTSEDTAVYYCTRWRSSMDYWGQGTSVTVSS VL: DIVLTQTPSSLSASLGDRVTISCSASQGISNYLNWYQQKPDGTVKLLIYYTSSLHSGVPSRFSGSGSGTDYSLTISNLEPEDIATYYCQQYSKLPWTFGGGTKLEIK | binds | binds
100388_C1VH6_100389_C1VK1 (antibody, V domains shown, Mouse variable regions; cloned into pFUSE-CHIg-mG1 (murine IgG1 Fc), expressed in HEK293; also called 388C16A) VH: EVQLQESGPELVKPGASVKIPCKASGYTFTDYNMDWVKQSHGKSLEWIGDIDPNNGGIIYNQKFKGKAALTVDKSSSTAYMELRSLTSEDTAVYYCTRWRSSMDYWGQGTSVTVSS VL: DIVMTQSPSSLSASLGDRVTISCSASQDISSYLNWYQQKPDGTVKLLIYYTSSLHSGVPSRFSGSGSGTDYSLTISNLEPEDIATYYCQQYSELPWTFGGGTKLEIK | binds | binds
100388_C1VH2_100389_C1VK2 (antibody, V domains shown, Mouse variable regions; cloned into pFUSE-CHIg-mG1 (murine IgG1 Fc), expressed in HEK293; also called 388C12B) VH: EVQLQESGPELVKPGASVKIPCKASGYTFTDYNMDWVKQSHGKSLEWIGDIDPNNGGIIYNQKFKGKAALTVDKSSSTAYMELRSLTSEDTAVYYCARWRSSMDYWGQGTSVTVSS VL: DIVLTQTPSSLSASLGDRVTISCSASQGISNYLNWYQQKPDGTVKLLIYYTSSLHSGVPSRFSGSGSGTDYSLTISNLEPEDIATYYCQQYSKLPWTFGGGTKLEIK | binds | binds
100258_F6VH4_100259_F6VK1m1 (antibody, V domains shown, Mouse variable regions; cloned into pFUSE-CHIg-mG1 (murine IgG1 Fc), expressed in HEK293; also called 258F6m) VH: EVQLQESGPELVRPGASVKMSCKASGYTFTSYWMHWVKQRPGQGLEWIGMIEPSSSETSLNQKFKDKATLNVDKSSNTAYMQLSSLTSEDSAVYYCARSRGNYAYEMDYWGQGTSVTVSS VL: DIVMTQTPATMSASPGEKVTLTCSASSSVNSNYLYWYQQKPGSSPKVWIYSTSNLASGVPARFSGSGSGTSYSLTISSMEAEDAASYFCHQWSSYPPTFGSGTKLELK | binds | binds

Second part, led by results:

binding result (PD-1-HIS) | Binder | binding result [1]
binds | 100411_C2VH3_100412_C2VK7 (antibody, V domains shown, Mouse variable regions; cloned into pFUSE-CHIg-mG1 (murine IgG1 Fc), expressed in HEK293) VH: EVQLQESGPGLVKPSQSLSLTCTVTGYSITSDYAWNWIRQFPGNKLEWMGYITYSGSPTYNPSLKSQFSITRDTSKNQFFLQLNSVTTEDTATYYCARGLGGHYFDYWGQGTTLTVSS VL: DIVLTQTTATLSVTPGDRVSLSCRASQSISDYLHWYQQKSHESPRLLIKYASQSISGIPSRFSGSGSGSDFTLTVNSVEPEDVGVYYCQNGHSYPYTFGGGTKLEIK | binds
binds | 100392_C3VH7_100393_C3VK10 (antibody, V domains shown, Mouse variable regions; cloned into pFUSE-CHIg-mG1 (murine IgG1 Fc), expressed in HEK293) VH: EVQLQESGPGLVAPSQSLSITCTVSGFSLTSYGVDWVRQSPGKGLEWLGVIWGIGSTNYNSALKSRLSISKDNSKSQVFLKMNSLQSDDTAMYYCASDGFVYWGQGTLVTVSS VL: DIVMTQDELYNPVTSGESVSISCRSSKSLLYKDGKTYLNWFLQRPGQSPQVLIYFMSTRASGVSDRFSGSGSGTDFTLEISRVKAEDVGVYYCQQLVDFPFTFGSGTKLEIK | 
binds | 100392_C4VH5_100393_C4VK8 (antibody, V domains shown, Mouse variable regions; cloned into pFUSE-CHIg-mG1 (murine IgG1 Fc), expressed in HEK293) VH: EVQLQESGPELVKPGASVKIPCKASGYTFTDYNMDWVKKSHGKSLEWIGDIDPNNGGTIYNQKFKGKATLTVDKSSRTAYMELRSLTSEDTAVYYCARWRSSMDYWGQGTSVTVSS VL: DIVITQSPSSLSASLGDRVTISCSASQGISNYLNWYQQKPDGTVKLLIYYTSSLHSGVPSRFSGSGSGTDYSLTISNLEPEDIATYYCQQYSELPWTFGGGTKLEIK | binds
binds | 100392_B4VH10_100393_B4VK10 (antibody, V domains shown, Mouse variable regions; cloned into pFUSE-CHIg-mG1 (murine IgG1 Fc), expressed in HEK293) VH: EVQLQESGPELVRPGASVKIPCKASGYTFTDYNMDWVMQSHGKSLEWIGDIDPNNGGTIYNQKFKGKATLTVDKSSSTAYMELRSLTSEDTAVYYCTRWRSSMDYWGQGTSVTVSS VL: DIVMTQSPSSLSASLGDRVTISCSASQGISNYLNWYQQKPDGTVKLLIYYTSNLHSGVPSRFSGSGSGTDYSLTISDLAPEDIATYYCQQYSYLPWTFGGGTKLEIK | 
binds | 100244_C7VH10_100245_C8VK5 (antibody, V domains shown, Mouse variable regions; cloned into pFUSE-CHIg-mG1 (murine IgG1 Fc), expressed in HEK293) VH: EVQLQESGPELVRPGASVKMSCKASGYTFTSYWMHWVKQRPGQGLEWIGMIDPSNSETSLNQKFKDKATLNVDKSSKTAYMQLSSLTSEDSAVYYCARSRGNYAYDMDYWGQGTSVTVSS VL: DIVITQTTAIMSASPGEKVTLTCSASSSVSSNYLYWYQQRPGSSPKLWIYSTSNLASGVPARFSGSGSGTSYSLTISSMEAEDAASYFCHQWSSYPPTFGSGTKLEIK | binds
binds | 100244_C7VH10_100245_C8VK5m1 (antibody, V domains shown, Mouse variable regions; cloned into pFUSE-CHIg-mG1 (murine IgG1 Fc), expressed in HEK293; also called 244C7m1) VH: EVQLQESGPELVRPGASVKMSCKASGYTFTSYWMHWVKQRPGQGLEWIGMIDPSNSETSLNQKFKDKATLNVDKSSKTAYMQLSSLTSEDSAVYYCARSRGNYAYDMDYWGQGTSVTVSS VL: DIVLTQTPAIMSASPGEKVTLTCSASSSVSSNYLYWYQQRPGSSPKLWIYSTSNLASGVPARFSGSGSGTSYSLTISSMEAEDAASYFCHQWSSYPPTFGSGTKLEIK | binds
